According to publication PMC12287301, “DSK2-mediated degradation of F-box protein LAO1 and class I TCPs modulates the nitrogen starvation response” (EMBO Reports, 2025):

B1: GST-DSK2B CT (domain or fragment, Arabidopsis thaliana, UniProt Q9SII8 237-551, looked up)
chain: MRNTDRAMSNIESMPEGFNMLRRMYENVQEPLMNATTMSGNAGNNTGSNPFAALLGNQGVTTQGSDASNNSSTPNAGTGTIPNANPLPNPWGATGGQTTAPGRTNVGGDARSPGLGGLGGLGSLGGLGGLGMLGADSPLGATPDASQLSQLLQNPAISQMMQSVFSNPQYMNQLMSLNPQLRSMLDSNPQLREMMQNPDFLRQFSSPEMMQQMMTLQQSLSQNRNTASQDAGQTGAATGNNGGLDLLMNMFGSLGAGGLSGTNQSNVPPEERYATQLQQLQEMGFYDRAENIRALLATNGNVNAAVERLLGSIGQ
notes: DSK2B (AT2G17200), Arabidopsis thaliana, C-terminus (DSK2BCT); the limits 237 to 552 a.a. are printed for the two-hybrid construct DSK2B-CT of the same name; Cloned into EcoRI-digested pGEX-4T-1; also called pGEX-4T-1-DSK2CT; source: E. coli Rosetta (DE3), purified (GST agarose)

Columns and labels:
Experiment in all cases: pull-down; GST pull-down: GST or GST-DSK2BCT incubated with His-tagged TCP in 50 mM Tris-HCl pH 7.5, 150 mM NaCl, 0.5% Triton X-100, 1 mM PMSF at 4 C for 3 h, then GST beads 1 h; blots anti-GST and anti-His
Conditions in all cases: both partners purified
His-TCP14 = target: T1, His-TCP14 (Arabidopsis thaliana, UniProt Q93Z00 1-489)
T1 construct: TCP14 (AT3G47620), Arabidopsis thaliana; Cloned into BamHI/SalI-digested pET32a; also called recombinant His-TCP14; pET32a-TCP14; source: E. coli Rosetta (DE3), purified (Ni-NTA agarose)

His-TCP15 = target: T2, His-TCP15 (Arabidopsis thaliana, UniProt Q9C9L2 1-325)
T2 construct: TCP15 (AT1G69690), Arabidopsis thaliana; Cloned into BamHI/SalI-digested pET32a; also called recombinant His-TCP15; pET32a-TCP15; source: E. coli Rosetta (DE3), purified (Ni-NTA agarose)

GST-DSK2B CT = target: B1

T1 sequence (Q93Z00 whole entry): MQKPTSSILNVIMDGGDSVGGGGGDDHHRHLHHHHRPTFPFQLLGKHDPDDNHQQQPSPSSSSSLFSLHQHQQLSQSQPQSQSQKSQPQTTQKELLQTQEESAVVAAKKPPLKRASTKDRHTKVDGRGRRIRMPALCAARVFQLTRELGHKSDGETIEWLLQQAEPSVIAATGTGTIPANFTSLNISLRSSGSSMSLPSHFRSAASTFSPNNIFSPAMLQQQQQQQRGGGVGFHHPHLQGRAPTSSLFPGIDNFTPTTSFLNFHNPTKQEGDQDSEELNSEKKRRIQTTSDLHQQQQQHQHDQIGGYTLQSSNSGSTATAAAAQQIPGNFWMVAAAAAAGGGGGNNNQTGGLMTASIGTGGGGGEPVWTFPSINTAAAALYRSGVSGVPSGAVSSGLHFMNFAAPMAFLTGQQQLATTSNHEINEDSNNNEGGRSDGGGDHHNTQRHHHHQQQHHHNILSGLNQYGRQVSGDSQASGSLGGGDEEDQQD

B1: binds (His-TCP14); binds (His-TCP15).

B2: His-TCP21 (natural protein)
chain: not shown
notes: TCP21 (AT5G08330), Arabidopsis thaliana; Cloned into BamHI/SalI-digested pET32a; also called recombinant His-TCP21; pET32a-TCP21; source: E. coli Rosetta (DE3), purified (Ni-NTA agarose)
B2: binds (GST-DSK2B CT).

B3: His-TCP7 (natural protein)
chain: not shown
notes: TCP7 (AT5G23280), Arabidopsis thaliana; Cloned into BamHI/SalI-digested pET32a; also called recombinant His-TCP7; pET32a-TCP7; source: E. coli Rosetta (DE3), purified (Ni-NTA agarose)
B3: binds (GST-DSK2B CT).
